Results reported in the supplement of paper PMC9170038.

System: MS2 coat protein
Assay: apparent KD of MS2 coat protein; designed switch direction (-1 OFF switch, 1 ON switch): 1; higher = weaker reporter binding
Procedure, shortened: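 Normalised cluster fluorescence was curve-fitted, and each design's median over clusters is its apparent KD. Before this, SNAP-549-labelled MS2 coat protein was titrated from 0.7 or 1.5 nM, doubling to 3 µM, over RNA switches transcribed on Illumina chips by stalled E. coli RNA polymerase. Titrations had no input, 200 uM small-molecule ligand, or an oligonucleotide input, and steps lasted 0.8–1.5 h (lowest) to 10–20 min (highest).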

[1] = input ligand: microRNA oligo, concentration not stated
[2] = Eterna round: R95, input ligand: FMN 200 uM
[3] = Eterna round: R95, input ligand: microRNA oligo, concentration not stated
[4] = Eterna round: R95, input ligand: none

Row | Sequence | apparent KD of MS2 coat protein [1] [nM] | apparent KD of MS2 coat protein [2] [nM] | apparent KD of MS2 coat protein [3] [nM] | apparent KD of MS2 coat protein [4] [nM] | apparent KD of MS2 coat protein (input ligand: FMN 200 uM) [nM] | apparent KD of MS2 coat protein (input ligand: none) [nM]
1 | UAGGAUCAACGAGGAUAUAAUAGGUUCAAUUUUUUAUAUUGUUUACAUGAGGAUCACCCAUGUUAUUAGAAGGCGUAUGGGAUU [JR_SSNG2_Sub084] (Eterna round: R96, puzzle: Same State NG 2) | 39.9 |  |  |  |  | 
2 | AUAAGUUCGAUGCUCGUCUCUCCGUACAAACAUGAGGAUCACCCAUGUGAUCGGGAAGUAGCCCGGUCAGUAUGGCC [Ordierti] (puzzle: Sensor for hsa-mir-208a) |  | 35.1 | 24.4 | 38.5 |  | 
3 | AUUACUAAUGCAGGAUAUGAUUAACAUGAGGAUCACCCAUGUGGUGUUGUGAGUAAGGAGAGUGAUCAGAAGGGCAUUUUUUUU [JMF's solution 29] (Eterna round: R96, puzzle: Same State NG 2) | 362 |  |  |  | 518 | 325
4 | UGUUGUAUUACAGGAUAUCUAUUGUUUUUUUUUAGAGAAGGGUAUUCACAUGAGGAUCACCCAUGUAUAUACGAGGAAGUUGUG [JMF's solution 79] (Eterna round: R96, puzzle: Same State NG 1) | 43.2 |  |  |  |  | 
5 | GGCGAACAGGCUAACAUGAGGAUCACCCAUGUGGACUUCGUGUAGGAUAUCGGGAAGGAGGAAACCGAGAAGGGCGAAGAAGCC [AK SSNG3-V2-49.1] (Eterna round: R96, puzzle: Same State NG 3) | 48.1 |  |  |  | 55.2 | 55.1
6 | CGUCCGGCCUGAGCUGGACGGUAGCAUGUACAUGAGGAUCACCCAUGUUCAUGUGCAGGCUUUUUGCUCGUCUUGUG [salish99_mir208a_modof_jandersonlee_003] (puzzle: Sensor for hsa-mir-208a) |  | 42.3 | 10.6 | 44.9 |  | 
7 | AAUUAUUGACAUGAGGAUCACCCAUGUAAAGCAUGGAUUAACAAGCUACAAGCUUUUUGCUCGUCUUAUCCUAUAGG [Improved Bojan's design] (puzzle: Sensor for hsa-mir-208a version 2) |  | 55.9 | 34.6 | 58.1 |  | 
8 | CCGGAUAAUGGAGGAUAUGGAGCCUUAUUGGCUCCAGAAGGCUAACAUGAGGAUCACCCAUGUUUUCCGGCGGUCAAUAGACCG [Eli NG1ss - 63] (Eterna round: R96, puzzle: Same State NG 1) | 11.4 |  |  |  | 10 | 18.2
9 | UACAAUCUAUCUGAGGAUAUCAUGAAAUAAACAUGAGGAUCACCCAUGUGCAGGAAAACUGCAUAUGAGAAGGCAGAUAGAUUGU [salish99_ss2_r3_059] (puzzle: Same State 2) |  | 41.1 | 662 | 1640 |  | 
10 | UAGCACUGUCGAGAGGAUAUGCGGUGAUGGACAUGAGGAUCACCCAUGUUAGCGACAGCAUCACGGCAGAAGGCUCUACUGCUGC [Soteed Omei mod 35] (puzzle: Same State 2) |  | 11.7 | 15.6 | 13.7 |  | 
11 | UGUUGUAUUACAGGAUAUCUAUUAGUUGUAUUUAGAGAAGGGUAUUCACAUGAGGAUCACCCAUGUAUAUACGAGGAAGUUGUG [JMF's solution 92] (Eterna round: R96, puzzle: Same State NG 1) | 44.1 |  |  |  | 79.8 | 59.7
12 | GAGAAUCUAUCUCAGGAUAUCAUGUCAAAGACAUGAGGAUCACCCAUGUACCAGGAAACUGGUUAUGAGAAGGGAGAUAGAUUCA [Mat - Same State 2 - Mod - D35] (puzzle: Same State 2) |  | 103 | 26.2 | 224 |  | 
13 | AUUUUUAAUGCAGGAUAUGAUUAACAUGAGGAUCACCCAUGUGGUGUUGUGAGUAAGGAGAGUGAUCAGAAGGGCAUUUUUUAU [JMF's solution 86] (Eterna round: R96, puzzle: Same State NG 2) | 702 |  |  |  | 453 | 441
14 | AGUCCAGCCUGAGCUGGACAAAAGCAUGUACAUGAGGAUCACCCAUGUCAUGUACAAGUUUUUUGCUCGUCUUAAUA [Zipper 49 - 12] (puzzle: Sensor for hsa-mir-208a) |  | 46.9 | 11.1 | 53.1 |  | 
15 | CCGAUGUAUGGAGGAUAUGGAGCCUUAUUGGCUCCAGAAGGCUAAUAACAUGAGGAUCACCCAUGUCGGCGGUCUAAUGACCGA [Eli NG1ss - 55] (Eterna round: R96, puzzle: Same State NG 1) | 49.3 |  |  |  | 48.2 | 112
16 | GUAGCAUACCGAGGAUAUUCAUAAUACAUGAGGAUCACCCAUGUAAGGCCACAUUAGUGGCCUUGGGAGAAGGCGGAAUGCUAC [Xeonanis - 20 Mod43] (Eterna round: R96, puzzle: Same State NG 2) | 35.7 |  |  |  | 13.7 | 44

Row | Sequence | apparent KD of MS2 coat protein [1] [nM] | apparent KD of MS2 coat protein [2] [nM] | apparent KD of MS2 coat protein [3] [nM] | apparent KD of MS2 coat protein [4] [nM] | apparent KD of MS2 coat protein (input ligand: FMN 200 uM) [nM] | apparent KD of MS2 coat protein (input ligand: none) [nM]
17 | UAAAUAAUGUAAGGAUAUACAUGAGGAAUUCUCGUAGAAGGUACAUGACAUGAGGAUCACCCAUGUAUCGCUCAGUAGAGCGUA [Mat - Same State NG 1 - JL mod - D27] (Eterna round: R96, puzzle: Same State NG 1) | 48.3 |  |  |  |  | 
18 | CUGAGCAAUCGAGGAUAUCACGUCGAAUAGACGUGAGAAGGCGAUCAUAACAUGAGGAUCACCCAUGUAUUACAUGAAGCUCAG [SSNG1/4-A1] (Eterna round: R96, puzzle: Same State NG 1) | 12.8 |  |  |  | 11.7 | 16.2
19 | ACGUGGAUAUCACAGGAUAUACUCAUAACUACAUGAGGAUCACCCAUGUAGCGGUAUUCCGAUGCGUAGAAGGGUGAUGGACCAC [Same State 2 - Mod of Artece v.2] (puzzle: Same State 2) |  | 13.9 | 14.9 | 17.4 |  | 
20 | ACAUGAGAGAAAGGAUAUCUUGUACCUACAUGUGACAUGAGGAUCACCCAUGUGGUAAGUAUGACAGAGAAGGUUCAGAUAUGU [Equivalance 71 - Jieux - Same State NG 2] (Eterna round: R96, puzzle: Same State NG 2) | 61.1 |  |  |  | 38.7 | 86.3
21 | GGAGCCGGCACUGAGGAUAUUCAUAGUGUAACAUGAGGAUCACCCAUGUAGGCCCUGAGGCCUUGGGAGAAGGCAGGUCGGCUCG [JL-ss2-3.04 ViennaUCT mod] (puzzle: Same State 2) |  | 31.8 | 239 | 445 |  | 
22 | GGUGGGUUACUACCAACACAUGAGGAUCACCCAUGUUUUGGGAAGGAUAUGGUACCUAUUUGGUACCAGAAGGUCCAGUUAGUG [salish99_SSNG3_r04_703] (Eterna round: R96, puzzle: Same State NG 3) | 37.7 |  |  |  | 61.9 | 40
23 | AAAAAACAUGAGGAUCACCCAUGUCAAAAGACAUGAGGAUAUGUACAGACUUCGGUCUGUACAGAAGGCAUGAAAA [salish99_ss1_r3_093] (Eterna round: R96, puzzle: Same State 1) | 359 |  |  |  |  | 
24 | CCGUUCAAUAAACAUGAGGAUCACCCAUGUGAUAAUAAGGGUGAGGAUAUGCAUCUGAAACAGGUGCAGAAGGCAUAAGAGCGG [JL SSNG3 3.91] (Eterna round: R96, puzzle: Same State NG 3) | 169 |  |  |  | 327 | 316
25 | CGUCCGGCCUGUGCUGGCCGGAAGCUUGUACAUGAGGAUCACCCAUGUUCAUGUGCAGGCUUUUUGCUCGUCUUGUG [salish99_mir208a_009] (puzzle: Sensor for hsa-mir-208a) |  | 26.4 | 30.9 | 32.2 |  | 
26 | GCUCGAUGUGCUGUUUACAUGAGGAUCACCCAUGUAGAUGCGGAGGAUAUCUACGUGCUUUAUGUAGAGAAGGUCGUAUCGAGC [SameState NG3 #83] (Eterna round: R96, puzzle: Same State NG 3) | 41.2 |  |  |  | 33.4 | 60.8
27 | GAGUAGUUGGGAGGAUAUGCAUUGUUAUAGAAUGCAGAAGGUUUUAACAUGAGGAUCACCCAUGUAGGACUAUUCCUGUGUAUC [Parity 71 - Jieux - Same State NG 1] (Eterna round: R96, puzzle: Same State NG 1) | 11.9 |  |  |  | 12.9 | 15.6
28 | GGUCCAGCCUGAGCUGGACAAAAGCAUGUACAUGAGGAUCACCCAUGUUCAUGUACAAGCUUUUUGCUCGUCUUACU [salish99_208a_r3_085] (puzzle: Sensor for hsa-mir-208a) |  | 681 | 15 | 553 |  | 
29 | GGAAAGAGGUAAGGAUAUGCAUGGCUGGGACAUGAGGAUCACCCAUGUAAUAGAAGAAAUCUAGGGUAGAAGGUACAAGGAAGG [AK SSNG2-V2-9] (Eterna round: R96, puzzle: Same State NG 2) | 367 |  |  |  | 1110 | 450
30 | CAGCUCGUGUGAGGAUAUGCCGCCGUUUCGGCUGCAGAAGGUGCUACGUUACAUGAGGAUCACCCAUGUCUCUGUUGUUUCGUU [salish99_SSNG1_r04_950] (Eterna round: R96, puzzle: Same State NG 1) | 18.2 |  |  |  |  | 
31 | GUAGCAUACCGAGGAUAUUCAUAUUAUAACAUGAGGAUCACCCAUGUAGGUCGAUUACGACCUUGGGAGAAGGCGGAAUGCUAC [Xeonanis - 20 Mod35] (Eterna round: R96, puzzle: Same State NG 2) | 307 |  |  |  | 34.7 | 210
